Experimental data taken from US11634477 (dated 2023).
Changes are numbered by the printed parent chain.

B1: C148 (antibody, V domains shown)
VH: EVQLVESGGGLVQPGGSQRLSCAASGFTVSSNYMSWIRQAPGKGLEWVSVIYSGGSAYYVDSVKGRFTISRDNSKNTLYLQMNSLRPEDTAVYYCARIANYMDVWGKGTTVTVSS
VL: EIVMTQSPATLSVSPGERATLSCRASQSVSSHLAWYQQKPGQAPRLLIYGASTRATGIPTRFSGSGSGTEFTLTISSLQSEDFAVYYCQQYNNWPPLTFGGGTKVEIK
B2: C140 (antibody, V domains shown)
VH: EVQLVESGGGLVQPGGSLRLSCAASGVTVSSNYMSWVRQAPGKGLEWVSLIYSGGSTFYADSVKGRFTISRDNSENTLYLQMNTLRAEDTAVYYCARDLYYYGMDVWGQGTTVTVSS
VL: DIQLTQSPSFLSASVGDRVTITCRASQGISSYLAWYQQKPGKAPKLLIYAASTLQSGVPSRFSGSGSGTEFTLTISSLQPEDFATYYCQQLNSYSYTFGQGTKLEIK
B3: C143 (antibody, V domains shown)
VH: EVQLVESGGGLVQPGGSLRLSCAASGFSVSTKYMTWVRQAPGKGLEWVSVLYSGGSDYYADSVKGRFTISRDNSKNALYLQMNSLRVEDTGVYYCARDSSEVRDHPGHPGRSVGAFDIWGQGTMVTVSS
VL: QSALTQPASVSGSPGQSITISCTGTSNDVGSYTLVSWYQQYPGKAPKLLIFEGTKRSSGISNRFSGSKSGNTASLTISGLQGEDEADYYCCSYAGASTFVFGGGTKLTVL
B4: C013 (antibody, V domains shown)
VH: QVQLVQSGAEVKKPGSSVKVSCKASGGTFSSYAISWVRQAPGQGLEWMGGIIPIFGTANYAQKFQGRVTITADESTSTAYMELSSLRSEDTAVYYCARGNRLLYCSSTSCYLDAVRQGYYYYYYMDVWGKGTTVTVSS
VL: EIVLTQSPATLSLSPGERATLSCRASQSVSSYLAWYQQKPGQAPRLLIYDASNRATGIPARFSGSGSGTDFTLTISSLEPEDFAVYYCQQRSNWPLTFGGGTKVEIK
B5: C019 (antibody, V domains shown)
VH: QVQLVQSGAEVKKPGASVKVSCKASGYTFTSYYMHWVRQAPGQGLEWMGIINPSGGSTSYAQKFQGRVTMTRDTSTSTVYMELSSLRSEDTAVYYCARVPREGTPGFDPWGQGTLVTVSS
VL: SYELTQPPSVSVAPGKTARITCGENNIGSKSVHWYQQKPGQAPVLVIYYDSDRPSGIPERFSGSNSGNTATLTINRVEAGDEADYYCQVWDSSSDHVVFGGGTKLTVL
B6: C018 (antibody, V domains shown)
VH: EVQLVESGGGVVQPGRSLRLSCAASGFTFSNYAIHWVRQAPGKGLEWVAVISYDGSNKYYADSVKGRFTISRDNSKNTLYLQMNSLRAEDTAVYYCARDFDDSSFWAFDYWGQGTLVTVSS
VL: DIQLTQSPSSLSASVGDRVTITCRASQSIRSYLNWYQQKPGKAPKLLIYAASSLQSGVPSRFSGSGSGTDFTLTISSLQPDDFATYYCQQSYSTPPATFGQGTKLEIK
B7: C004 (antibody, V domains shown)
VH: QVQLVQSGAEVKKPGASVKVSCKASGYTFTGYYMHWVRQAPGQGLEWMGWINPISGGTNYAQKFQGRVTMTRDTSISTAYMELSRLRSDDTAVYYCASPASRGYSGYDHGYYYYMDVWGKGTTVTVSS
VL: AIRMTQSPSSLSASVGDRVTITCQASQDISNYLNWYQQKPGKAPKLLIYDASNLETGVPSRFSGSGSGTDFTFTISSLQPEDIATYYCQQYDNLPITFGQGTRLEIK
B8: C017 (antibody, V domains shown)
VH: EVQLVESGGGLVQPGRSLRLSCAASGFTFDDYAMHWVRQAPGKGLEWVSGISWNSGTIGYADSVKGRFTISRDNAKNSLYLQMNSLRAEDTAFYYCAKAGVRGIAAAGPDLNFDHWGQGTLVTVSS
VL: EIVLTQSPATLSLSPGERATLSCRASQSVSSYLAWYQQKPGQAPRLLIYDASNRATGIPARFSGSGSGTDFTLTISSLEPEDFAVYYCQQRITFGQGTRLEIK
B9: C031 (antibody, V domains shown)
VH: EVQLVESGGGLVQPGGSLRLSCAASGFTFSSYDMHWVRQATGKGLEWVSAIGTAGDTYYPGSVKGRFTISRENAKNSLYLQMNSLRAGDTAVYYCARVGYDSSGYSGWYFDLWGRGTLVTVSS
VL: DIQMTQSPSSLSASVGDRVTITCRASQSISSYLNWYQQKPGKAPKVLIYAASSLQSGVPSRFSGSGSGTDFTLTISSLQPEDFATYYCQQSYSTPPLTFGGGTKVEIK
B10: C151 (antibody, V domains shown)
VH: EVQLVESGGGLVKPGGSLRLSCAASGFTFSSYNMNWVRQAPGKGLEWVSCISSSSSYIYYADSVKGRFTISRDNAKNSLYLQMNSLRAEDTAVYYCARERGYDGGKTPPFLGGQGTLVTVSS
VL: NFMLTQPHSVSESPGKTVTISCTGSSGSIASNYVQWYQQRPGSAPTTVIYEDNQRPSGVPDRFSGSIDSSSNSASLTISGLKTEDEADYYCQSYDSSNYWVFGGGTKLTVL
B11: C204 (antibody, V domains shown)
VH: EVQLLESGGGLEQPGGSLRLSCAASGFTFSTYAMSWVRQAPGKGLEWVSAISGSGAGTFYADSVKGRFTISRDNSKNTLYLQMNSLRAEDTAVYYCARESDCGSTSCYQVGWFDPWGQGTLVTVSS
VL: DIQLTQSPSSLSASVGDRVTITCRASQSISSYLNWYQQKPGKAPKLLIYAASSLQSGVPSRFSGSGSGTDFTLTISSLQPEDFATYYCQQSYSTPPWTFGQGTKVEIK
B12: C155 (antibody, V domains shown)
VH: EVQLVESGGGLIQPGGSLRLSCAASGFIVSSNYMSWVRQAPGKGLEWVSVIYSGGSTFYADSVKGRFTISRDNSKNTLYLQMNSLRAEDTAVYYCARDFGEFYFDYWGQGTLVTVSS
VL: EIVMTQSPATLSVSPGERATLSCRASQSVSSNLAWYQQKPGQAPRLLIYGASTRATAIPARFSGSGSGTEFTLTISSLQSEDFAVYYCQQYNNWPRTFGQGTKVEIK
B13: C210 (antibody, V domains shown)
VH: B2 VH with V12I, V27F, L50V, I69F, E75K, T84S, Y100M, Y101A
VL: DIQLTQSPSFLSASVGDRVTITCRASQGISSYLAWYQQKPGKAPKLLIYAASTLQSGVPSRFSGSGSGTEFTLTISSLQPEDFATYYCQQLNSYPQGTFGGGTKVEIK
B14: C202 (antibody, V domains shown)
VH: B12 VH with I12V, I28T, V50L, F58Y, F99T, G100L, E101G, F102R, Y103G, F104G
VL: B7 VL with A1D, R3Q, M4L, I96R, T97S, R103K
B15: C208 (antibody, V domains shown)
VH: EVQLVQSGAEVKKPGESLKISCKGSGYSFTSYWIGWVRQMPGKGLEWMGIIYPGDSDTRYSPSFQGQVTISADKSISTAYLKWSSLKASDSAMYYCARGPNLQNWFDPWGQGTLVTVSS
VL: EIVLTQSPGTLSLSPGERATLSCRASQSVSGSYLAWYQQRPGQAPRLLIYGASSRATGIPDRFSGSGSGTDFTLTISRLEPEDFAVYYCQQYGSSLTFGGGTKVEIK
B16: C016 (antibody, V domains shown)
VH: EVQLVESGGGVVQPGRSLRLSCAASGFTFSRYGMHWVRQAPGKGLEWVAVISYDGSNKYYADSVKGRFTISRDNSKNTLYLQMNSLRAEDTAVYYCAKVTAPYCSGGSCYGGNFDYWGQGTLVTVSS
VL: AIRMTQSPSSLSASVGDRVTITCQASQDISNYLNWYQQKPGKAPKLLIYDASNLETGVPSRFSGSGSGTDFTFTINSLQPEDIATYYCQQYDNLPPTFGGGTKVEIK
B17: C110 (antibody, V domains shown)
VH: QVQLQQSGAEVKKPGESLKISCKGSGYSFTSYWIGWVRQMPGKGLEWMGIIYPGDSDTRYSPSFQGQVTISADKSISTAYMQWSSLKASDTAMYYCARSFRDDPRIAVAGPADAFDIWGQGTMVTVSS
VL: DIQMTQSPSTLSASVGDRVTITCRASQSISYWLAWYQQKPGKAPKLLIYQASSLESGVPSRFSGSESGTEFTLTISSLQPDDFATYYCQQYNSYPYTFGQGTKLEIK

Biological target: SARS-CoV-2 RBD (SARS-CoV-2, UniProt P0DTC2)
Assay: ELISA

Binder | EC50 [ng/mL]
B1 | 64.7
B2 | 2.19
B3 | 3.66
B4 | 2.59
B5 | 11.8
B6 | 1.53
B7 | 2.39
B8 | 1.63
B9 | 22.7
B10 | 4.3
B11 | 3.73
B12 | 3.3
B13 | 2.83
B14 | 3.4
B15 | > 1000
B16 | 7.41
B17 | 7.29

Biological target: SARS-CoV RBD (SARS-CoV, UniProt P59594)
Assay: ELISA

Binder | EC50 [ng/mL]
B1 | > 1000
B2 | > 1000
B3 | > 1000
B4 | > 1000
B5 | > 1000
B6 | > 1000
B7 | > 1000
B8 | > 1000
B9 | > 1000
B10 | > 1000
B11 | 9.41
B12 | > 1000
B13 | > 1000
B14 | > 1000
B15 | > 1000
B16 | > 1000
B17 | > 1000
